The target in assay [1] is Wild-type recombinant human NGAL dimer expressed in CHO cells (human) (UniProt P80188). The assay is described as follows: … sandwich CMIA, capture HYB 211-01, detection acridinium-HYB 211-02; calibrator D, NGAL 250 ng/mL.
Assay [2] addresses Wild-type recombinant human NGAL monomer expressed in CHO cells (human) (UniProt P80188). The assay is described as above.
Assay [3] has as its target Wild-type recombinant human NGAL dimer calibrators treated with DTT (human) (UniProt P80188). The description is as above.
For assay [4], the target named is Wild-type recombinant human NGAL dimer expressed in CHO cells (human) (UniProt P80188). The assay can be described thus: … sandwich CMIA, capture HYB 211-01, detection acridinium-HYB 211-02; calibrator E, NGAL 600 ng/mL.
Assay [5] has as its target Wild-type recombinant human NGAL monomer expressed in CHO cells (human) (UniProt P80188). The description is as above.
Assay [6] addresses Wild-type recombinant human NGAL dimer calibrators treated with DTT (human) (UniProt P80188). The description is as above.
Assay [7] concerns the target Wild-type recombinant human NGAL dimer expressed in CHO cells (human) (UniProt P80188). The assay can be described thus: … sandwich CMIA, capture HYB 211-01, detection acridinium-HYB 211-02; curve fit with monomer calibrators; target 50 ng/mL.
Assay [8] addresses Wild-type recombinant human NGAL monomer expressed in CHO cells (human) (UniProt P80188). Described as above.
Assay [9] has as its target Wild-type recombinant human NGAL dimer calibrators treated with DTT (human) (UniProt P80188). The description is as above.
Assay [10] deals with Wild-type recombinant human NGAL dimer expressed in CHO cells (human) (UniProt P80188). The assay can be described thus: … sandwich CMIA, capture HYB 211-01, detection acridinium-HYB 211-02; NGAL 5 ng/mL.
For assay [11], the target named is Native NGAL purchased from Diagnostics Development (Uppsala, Sweden), non-reduced (UniProt P80188). The assay is described as above.
Assay [12] addresses Wild-type recombinant human NGAL monomer expressed in CHO cells (human) (UniProt P80188). The description is as above.
The target in assay [13] is Wild-type recombinant human NGAL dimer calibrators treated with DTT (human) (UniProt P80188). Described as above.
The target in assay [14] is Wild-type recombinant human NGAL dimer expressed in CHO cells (human) (UniProt P80188). The assay can be described thus: … sandwich CMIA, capture HYB 211-01, detection acridinium-HYB 211-02; NGAL 1000 ng/mL.
Assay [15] addresses Native NGAL purchased from Diagnostics Development (Uppsala, Sweden), non-reduced (UniProt P80188). Described as above.
Assay [16] concerns the target Wild-type recombinant human NGAL monomer expressed in CHO cells (human) (UniProt P80188). Described as above.
In assay [17] the target is Wild-type recombinant human NGAL dimer calibrators treated with DTT (human) (UniProt P80188). Described as above.
Assay [18] has as its target Wild-type recombinant human NGAL dimer expressed in CHO cells (human) (UniProt P80188). The assay is described as follows: … sandwich CMIA, capture HYB 211-01, detection acridinium-HYB 211-02; NGAL 50 ng/mL.
Assay [19] addresses Native NGAL purchased from Diagnostics Development (Uppsala, Sweden), non-reduced (UniProt P80188). Described as above.
The target in assay [20] is Wild-type recombinant human NGAL monomer expressed in CHO cells (human) (UniProt P80188). Described as above.
Assay [21] addresses Wild-type recombinant human NGAL dimer calibrators treated with DTT (human) (UniProt P80188). Described as above.
The target in assay [22] is Wild-type recombinant human NGAL dimer expressed in CHO cells (human) (UniProt P80188). The assay can be described thus: … sandwich CMIA, capture 1-2322-455, detection acridinium-1-903-430; NGAL Dimer High, 1500 ng/mL dimer calibrator.
Assay [23] has as its target Wild-type recombinant human NGAL dimer calibrators with TCEP in the reaction mixture (human) (UniProt P80188). The assay is described as follows: … sandwich CMIA, capture 1-2322-455, detection acridinium-1-903-430; TCEP in reaction; curve fit with monomer calibrators; target 1000 ng/mL.
Assay [24] addresses Wild-type recombinant human NGAL dimer expressed in CHO cells (human) (UniProt P80188). The assay is described as follows: … sandwich CMIA, capture 1-2322-455, detection acridinium-1-903-430; NGAL 600 ng/mL.
Assay [25] shares this target. The assay is described as follows: … sandwich CMIA, capture 1-2322-455, detection acridinium-1-903-430; NGAL 5 ng/mL.
In assay [26] the target is Wild-type recombinant human NGAL monomer expressed in CHO cells (human) (UniProt P80188). The description is as above.

The text below walks through data of patent publication EP2225268B1.

For the molecule “anti-NGAL antibody HYB 211-01 from AntibodyShop A/S, Gentofte, Denmark”, the RLUs turned out to be 142000 RLUs in [1]; 396000 RLUs in assay [2]; 378000 RLUs in assay [3]; 282000 RLUs in assay [4]; 691000 RLUs in [5]; 676000 RLUs in assay [6]. In addition, the RLUs was 4050 RLUs in assay [10]; 15300 RLUs in assay [11]; 12000 RLUs in [12]; 11400 RLUs in assay [13]; 390000 RLUs in [14]; 1.32e+06 RLUs in assay [15]. Further, the RLUs worked out at 885000 RLUs in [16]; 855000 RLUs in assay [17]; 31500 RLUs in assay [18]; 151000 RLUs in assay [19]; 101000 RLUs in [20]; 101000 RLUs in [21]. Moreover, the figures for the Curve Fit Results in assay [7], in [8] and in assay [9] were 14.1 ng/mL, 49.5 ng/mL and 49 ng/mL, respectively.

B1: antibody produced by murine hybridoma cell line 1-2322-455 having ATCC Accession No. PTA-8024 (antibody, V domains shown)
VH: EVQLVESGGGLVQPGGSLKLSCAASGFTFNNYYMSWVRQTPERRLEWVAYISSSGGSTYYSDSVRGRFTISRDTARNTLYLQMTSLKSEDTAMYYCARHFGDYSYFDYWGQGTTLTVSS
VL: DIQMTQSPASLSASVGETVTITCRASENFYSYLAWYQQKQGKSPQLLVYNAKTLAEGVPSRFSGSGSGTQFSLKINSLQPEDFGTYYCQHHYDIPLTFGAGTKLELKR
For the molecule B1, the NGAL concentration detected in assay [22] amounted to 309 ng/mL. Moreover, in assay [23], the Curve Fit Results was 497 ng/mL. For the same molecule, the RLUs in assay [24] was found to be 680000 RLUs; in [25], 9120 RLUs; in assay [26], 29300 RLUs.
